Reference: US20020119121A1, “Compositions and methods for inducing specific cytolytic T cell responses” (priority 2000, published 2002)

Key:
[1] = tested on: class I molecules, TAP transporters, PA28, immunoproteasomes in monocytes/DC; assay: Expression of class I molecules, TAP transporters, PA28 and immunoproteasomes by flow cytometry and immunoprecipitation; assay type: cell-based, human; details: treatment of immature DC
Description: To determine if the differences observed between DC treated with LPS, TNF-α, or CD40L in inducing CTL activity of CD8^+ T cells were due to differences in antigen processing and presentation capacity of monocytes, immature DC, and mature DC, the expression levels of class I molecules, TAP transporters, PA28 (an immunoproteasome regulator), and immunoproteasomes were examined by flow cytometry (FACScan, Benton Dickenson, Milano, Italy) and immunoprecipitation with appropriate antibodies. […] The level of expression of class I molecules was further increased by two fold upon treatment with LPS, CD40L, or TNF-α.

[2] = tested on: JY (A2+) and 221 (A2-) 51Cr-labeled target cells
[3] = tested on: JY (A2+) and 221 (A2-) 51Cr-labeled target cells; assay: 51Cr-release assay of HLA-A2 specific CTL activity induced in purified CD8+ TL by dendritic cells
[4] = tested on: 51Cr-labeled recipient LB; assay: Inhibition of LB-directed cytotoxicity by granule exocytosis pathway blockers; details: CMA 1, 10, 100 nM/L for 2 h or SrCl2 5, 25, 50 mM/L for 18 h; one mean given for either reagent; FIG. 5 E:T 5:1
Description: Cytolytic activity of a CTL refers to the secretion of the contents of secretory granules into the immediate vicinity of the target cell to which it attaches. The granules contain perforins, various lysosomal enzymes, and calcium binding proteins that destroy the target cell.

tumor necrosis factor-α [TNF-α]
further increase of expression of class I molecules [1]: two fold

IL-7: cytokine interleukin-7
effect on cytotoxic activity induced by immature DC [2]: no effect
enhancement of cytotoxic activity [2]: approximately three fold

lipopolysaccharide [LPS]
further increase of expression of class I molecules [1]: two fold
induction of cytotoxic activity from purified CD8+ T cells by treated DC ([3]; DC treated with LPS 20 ng/ml, TNF-α 20 ng/ml (40 h) or irradiated CD40L-transfected cells, FIG. 1A): only CD40L treated DC were capable of inducing cytotoxic activity

IL-6: lymphokine added to the CTL induction culture
effect of addition on cytotoxic activity [2]: no effect

IL-4: lymphokine added to the CTL induction culture
effect of addition on cytotoxic activity [2]: no effect

C/C=C/[C@H]1O[C@@](O)([C@@H](C)[C@H](O)[C@H](C)[C@H]2OC(=O)/C(OC)=C/C(C)=C/[C@@H](C)[C@@H](O)[C@@H](CC)[C@@H](O)[C@H](C)C/C(C)=C/C=C/[C@@H]2OC)C[C@@H](O[C@H]2C[C@@H](O)[C@H](OC(N)=O)[C@@H](C)O2)[C@@H]1C [CMA, concanamycin A]
mean inhibition of LB-directed cytotoxicity [4]: 87%

IL-12: cytokine interleukin-12
substitution for CD40L in inducing cytotoxic activity [2]: two of the four

B1: CD40L: CD40 Ligand, supplied as irradiated CD40L-transfected cells added to immature DC; dendritic cell maturation factor (protein, UniProt P29965 1-261, looked up)
chain: MIETYNQTSPRSAATGLPISMKIFMYLLTVFLITQMIGSALFAVYLHRRLDKIEDERNLHEDFVFMKTIQRCNTGERSLSLLNCEEIKSQFEGFVKDIMLNKEETKKENSFEMQKGDQNPQIAAHVISEASSKTTSVLQWAEKGYYTMSNNLVTLENGKQLTVKRQGLYYIYAQVTFCSNREASSQAPFIASLCLKSPGRFERILLRAANTHSSAKPCGQQSIHLGGVFELQPGASVFVNVTDPSQVSHGTGFTSFGLLKL
modifications: full-length expressed on irradiated transfected cells
notes: CD40 Ligand, supplied as irradiated CD40L-transfected cells added to immature DC; dendritic cell maturation factor
further increase of expression of class I molecules [1]: two fold
CD8+ cell populations in which CTL activity was detected ([3]; CD40L-treated DC, four CD8+ populations tested): three of the four
